These are literature values, as cited in article PMC5648805.

A word on the Kd: it is the equilibrium constant for the complex coming apart.

One data set has as its target Orai1 (Homo sapiens) (UniProt Q96D31).
In data set [1] the target is Calmodulin (Homo sapiens) (UniProt P0DP23). The experiment in a line: ITC. In general terms: ITC needs no label: the signal is the heat of the interaction.

Sequence of UniProt Q96D31 (Q96D31 whole entry): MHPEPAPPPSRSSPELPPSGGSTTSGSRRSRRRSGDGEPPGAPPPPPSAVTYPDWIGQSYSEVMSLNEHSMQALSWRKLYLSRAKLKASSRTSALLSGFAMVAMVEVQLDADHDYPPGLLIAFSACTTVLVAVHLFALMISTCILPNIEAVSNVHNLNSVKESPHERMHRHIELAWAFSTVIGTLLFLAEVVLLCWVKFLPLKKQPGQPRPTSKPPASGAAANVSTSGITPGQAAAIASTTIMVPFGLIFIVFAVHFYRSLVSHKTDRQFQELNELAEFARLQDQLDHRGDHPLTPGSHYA

STIM1 SOAR (from UniProt Q13586): the dissociation constant (Kd) with Orai1 (Homo sapiens) was 200 µM.

Regarding “STIM1 polybasic peptide polybasic region (from UniProt Q13586)”, in data set [1], the Kd is 1 µM.
